First the molecules themselves.
B1: caspase 6 (protein)
chain: AFYKREMFDPAEKYKMDHRRRGIALIFNHERFFWHLTLPERRGTCADRDNLTRRFSDLGFEVKCFNDLKAEELLLKIHEVSTVSHADADCFVCVFLSHGEGNHIYAYDAKIEIQTLTGLFKGDKCHSLVGKPKIFIIQACRGNQHDVPVIPLDVVDNQTEKLDTNITEVDAASVYTLPAGADFLMCYSVAEGYYSHRETVNGSWYIQDLCEMLGKYGSSLEFTELLTLVNRKVSQRRVDFCKDPSAIGKKQVPCFASMLTKKLHFFPKSN
B2: caspase 8 (protein)
chain: SESQTLDKVYQMKSKPRGYCLIINNHNFAKAREKVPKLHSIRDRNGTHLDAGALTTTFEELHFEIKPHDDCTVEQIYEILKIYQLMDHSNMDCFICCILSHGDKGIIYGTDGQEAPIYELTSQFTGLKCPSLAGKPKVFFIQACQGDNYQKGIPVETDSEEQPYLEMDLSSPQTRYIPDEADFLLGMATVNNCVSYRNPAEGTWYIQSLCQSLRERCPRGDDILTILTEVNYEVSNKDDKKNMGKQMPQPTFTLRKKLVFPSD
B3: caspase 7 (protein)
chain: AKPDRSSFVPSLFSKKKKNVTMRSIKTTRDRVPTYQYNMNFEKLGKCIIINNKNFDKVTGMGVRNGTDKDAEALFKCFRSLGFDVIVYNDCSCAKMQDLLKKASEEDHTNAACFACILLSHGEENVIYGKDGVTPIKDLTAHFRGDRCKTLLEKPKLFFIQACRGTELDDGIQADSGPINDTDANPRYKIPVEADFLFAYSTVPGYYSWRSPGRGSWFVQALCSILEEHGKDLEIMQILTRVNDRVARHFESQSDDPHFHEKKQIPCVVSMLTKELYFSQ
B4: caspase 9 (protein)
chain: MDEADRRLLRRCRLRLVEELQVDQLWDALLSRELFRPHMIEDIQRAGSGSRRDQARQLIIDLETRGSQALPLFISCLEDTGQDMLASFLRTNRQAAKLSKPTLENLTPVVLRPEIRKPEVLRPETPRPVDIGSGGFGDVGALESLRGNADLAYILSMEPCGHCLIINNVNFCRESGLRTRTGSNIDCEKLRRRFSSLHFMVEVKGDLTAKKMVLALLELAQQDHGALDCCVVVILSHGCQASHLQFPGAVYGTDGCPVSVEKIVNIFNGTSCPSLGGKPKLFFIQACGGEQKDHGFEVASTSPEDESPGSNPEPDATPFQEGLRTFDQLDAISSLPTPSDIFVSYSTFPGFVSWRDPKSGSWYVETLDDIFEQWAHSEDLQSLLLRVANAVSVKGIYKQMPGCFNFLRKKLFFKTS
B5: caspase 3 (protein)
chain: SGISLDNSYKMDYPEMGLCIIINNKNFHKSTGMTSRSGTDVDAANLRETFRNLKYEVRNKNDLTREEIVELMRDVSKEDHSKRSSFVCVLLSHGEEGIIFGTNGPVDLKKITNFFRGDRCRSLTGKPKLFIIQACRGTELDCGIETDSGVDDDMACHKIPVEADFLYAYSTAPGYYSWRNSKDGSWFIQSLCAMLKQYADKLEFMHILTRVNRKVATEFESFSFDATFHAKKQIPCIVSMLTKELYFYH

One series deals with T1, 6×His-Livin α.
T1 chain: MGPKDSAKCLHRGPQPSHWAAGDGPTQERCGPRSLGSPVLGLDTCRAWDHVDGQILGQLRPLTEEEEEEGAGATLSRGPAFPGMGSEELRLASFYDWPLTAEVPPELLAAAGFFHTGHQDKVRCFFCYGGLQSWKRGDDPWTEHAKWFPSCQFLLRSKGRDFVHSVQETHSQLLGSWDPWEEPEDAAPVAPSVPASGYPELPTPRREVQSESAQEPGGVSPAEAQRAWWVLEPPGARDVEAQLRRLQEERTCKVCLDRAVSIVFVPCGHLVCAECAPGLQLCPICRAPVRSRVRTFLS
Turning to B1, the “in vitro cleavage, Western blot with anti-Livin antibody” value (“in vitro cleavage, Western blot” below) is “caspase 6 was not able to cleave Livin at low concentrations (FIG. 4b)”.
The same measure, in the same setting: the same measure for B2: “Treatment of recombinant Livin α and β with caspase 8 had no effect even when 90 units of this enzyme were used”.
In the case of B3, the “in vitro cleavage, Western blot” value is recorded as “In contrast to the marked efficiency of caspase 7, caspase 6 was not able to cleave Livin at low concentrations (FIG. 4b)”.
As for B4, the “in vitro cleavage, Western blot” value is “incubation with high concentrations of caspase 9 resulted in a weak cleavage, suggesting that caspase 9 might cleave Livin with a very low affinity”.

The next series concerns the target T2, 6×His-Livin β.
T2 chain: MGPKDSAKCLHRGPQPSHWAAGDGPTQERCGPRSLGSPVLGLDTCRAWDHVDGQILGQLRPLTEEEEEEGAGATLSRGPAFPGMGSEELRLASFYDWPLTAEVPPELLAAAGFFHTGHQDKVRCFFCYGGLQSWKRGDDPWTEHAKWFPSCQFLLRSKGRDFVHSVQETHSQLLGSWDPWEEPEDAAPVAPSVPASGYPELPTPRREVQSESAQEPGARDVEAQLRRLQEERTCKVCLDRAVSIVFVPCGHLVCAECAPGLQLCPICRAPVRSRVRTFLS
As to B1, the “in vitro cleavage, Western blot” value is “relatively high concentrations of caspase 6 ... cleaved Livin β”.
Still for that read-out and setting: the same measure for B2: “Treatment of recombinant Livin α and β with caspase 8 had no effect even when 90 units of this enzyme were used”.
Take B3: the “in vitro cleavage, Western blot” value was “The most efficient cleavage was observed when caspase 7 was used, resulting in the complete cleavage of the recombinant Livin β”.
Same read-out and setting: next, B4: “incubation with high concentrations of caspase 9 resulted in a weak cleavage, suggesting that caspase 9 might cleave Livin with a very low affinity”; B5: “effector caspases 3, 7, and relatively high concentrations of caspase 6, but not the initiator caspases 8 and 9, cleaved Livin β”.

The next series deals with T3, Livin α.
T3 chain: T1 chain
For the protein B1, the “in vitro cleavage of in vitro translated protein, Western blot” value is given as “it did not cleave any of the Livin isoforms that were translated in eukaryotic in vitro system”.
Consider B3, for which the “in vitro cleavage of in vitro translated protein, Western blot” value is “underwent cleavage similar to the wild-type protein by caspase 3 and 7”.
Same read-out and setting: the same measure for B5: “underwent cleavage similar to the wild-type protein by caspase 3 and 7”.

Another series concerns the target T4, Livin β.
T4 chain: T2 chain
For the protein B1, the “in vitro cleavage of in vitro translated protein, Western blot” value is “it did not cleave any of the Livin isoforms that were translated in eukaryotic in vitro system”.
With B3, the “in vitro cleavage of in vitro translated protein, Western blot” value was “underwent cleavage similar to the wild-type protein by caspase 3 and 7”.
The same measure, in the same setting: next, B5: “underwent cleavage similar to the wild-type protein by caspase 3 and 7”.

Values taken from patent US20070244040.
